Laboratory results: PMC3741272, “Identification and Characterization of a Novel aac(6′)-Iag Associated with the bla IMP-1–Integron in a Multidrug-Resistant Pseudomonas aeruginosa” (PLoS ONE, 2013)

What was measured:
Assay in all cases: purified protein
Format in all cases: biochemical, Pseudomonas aeruginosa
Settings in all cases: 200 µM acetyl-CoA, 2 mM DTNB, 50 mM phosphate pH 7.0, 37°C
[1] = system: CN[C@@H]1[C@@H](O)[C@@H](O[C@@H]2[C@@H](O)[C@H](O[C@H]3OC(CN)=CC[C@H]3N)[C@@H](N)C[C@H]2N)OC[C@]1(C)O
[2] = system: CN[C@@H]1[C@@H](O)[C@@H](O[C@@H]2[C@@H](O)[C@H](O[C@H]3O[C@H](CN)[C@@H](O)[C@H](O)[C@H]3O)[C@@H](N)C[C@H]2NC(=O)[C@@H](O)CN)OC[C@]1(C)O
[3] = system: NCC[C@H](O)C(=O)N[C@@H]1C[C@H](N)[C@@H](O[C@H]2O[C@H](CN)CC[C@H]2N)[C@H](O)[C@H]1O[C@H]1O[C@H](CO)[C@@H](O)[C@H](N)[C@H]1O
[4] = system: NCC[C@H](O)C(=O)N[C@@H]1C[C@H](N)[C@@H](O[C@H]2O[C@H](CN)[C@@H](O)[C@H](O)[C@H]2O)[C@H](O)[C@H]1O[C@H]1O[C@H](CO)[C@@H](O)[C@H](N)[C@H]1O
[5] = system: NC[C@@H]1CC[C@@H](N)[C@@H](O[C@H]2[C@H](O)[C@@H](O[C@H]3O[C@H](CO)[C@@H](O)[C@H](N)[C@H]3O)[C@H](N)C[C@@H]2N)O1
[6] = system: NC[C@H]1O[C@H](O[C@H]2[C@H](O)[C@@H](O[C@H]3O[C@H](CO)[C@@H](O)[C@H](N)[C@H]3O)[C@H](N)C[C@@H]2N)[C@H](N)C[C@@H]1O
[7] = system: NC[C@H]1O[C@H](O[C@H]2[C@H](O)[C@@H](O[C@H]3O[C@H](CO)[C@@H](O)[C@H](N)[C@H]3O)[C@H](N)C[C@@H]2N)[C@H](O)[C@@H](O)[C@@H]1O

AAC(6′)-Iag (Pseudomonas aeruginosa)
Km [1]: 8.81 ± 1.2 µM | kcat [1]: 0.745 ± 0.08 s⁻¹ | kcat/Km [1]: 85000 M⁻¹ s⁻¹ | Km [2]: 209 ± 88 µM | kcat [2]: 0.10 ± 0.03 s⁻¹ | kcat/Km [2]: 520 M⁻¹ s⁻¹ | Km [3]: 9.9 ± 1.2 µM | kcat [3]: 0.79 ± 0.07 s⁻¹ | kcat/Km [3]: 80000 M⁻¹ s⁻¹ | Km [4]: 189 ± 108 µM | kcat [4]: 0.11 ± 0.03 s⁻¹ | kcat/Km [4]: 780 M⁻¹ s⁻¹ | Km [5]: 3.03 ± 0.64 µM | kcat [5]: 0.194 ± 0.02 s⁻¹ | kcat/Km [5]: 64000 M⁻¹ s⁻¹ | Km [6]: 3.27 ± 0.76 µM | kcat [6]: 0.15 ± 0.03 s⁻¹ | kcat/Km [6]: 46000 M⁻¹ s⁻¹ | Km [7]: 52.1 ± 16 µM | kcat [7]: 0.29 ± 0.06 s⁻¹ | kcat/Km [7]: 5600 M⁻¹ s⁻¹
